In article PMC9342896:

Target: aryl hydrocarbon nuclear receptor translocator 2 (ARNT2), in T-REx293 lysate (human (endogenous in T-REx293)) (UniProt Q9HBZ2)
UniProt Q9HBZ2, sequence (Q9HBZ2 whole entry): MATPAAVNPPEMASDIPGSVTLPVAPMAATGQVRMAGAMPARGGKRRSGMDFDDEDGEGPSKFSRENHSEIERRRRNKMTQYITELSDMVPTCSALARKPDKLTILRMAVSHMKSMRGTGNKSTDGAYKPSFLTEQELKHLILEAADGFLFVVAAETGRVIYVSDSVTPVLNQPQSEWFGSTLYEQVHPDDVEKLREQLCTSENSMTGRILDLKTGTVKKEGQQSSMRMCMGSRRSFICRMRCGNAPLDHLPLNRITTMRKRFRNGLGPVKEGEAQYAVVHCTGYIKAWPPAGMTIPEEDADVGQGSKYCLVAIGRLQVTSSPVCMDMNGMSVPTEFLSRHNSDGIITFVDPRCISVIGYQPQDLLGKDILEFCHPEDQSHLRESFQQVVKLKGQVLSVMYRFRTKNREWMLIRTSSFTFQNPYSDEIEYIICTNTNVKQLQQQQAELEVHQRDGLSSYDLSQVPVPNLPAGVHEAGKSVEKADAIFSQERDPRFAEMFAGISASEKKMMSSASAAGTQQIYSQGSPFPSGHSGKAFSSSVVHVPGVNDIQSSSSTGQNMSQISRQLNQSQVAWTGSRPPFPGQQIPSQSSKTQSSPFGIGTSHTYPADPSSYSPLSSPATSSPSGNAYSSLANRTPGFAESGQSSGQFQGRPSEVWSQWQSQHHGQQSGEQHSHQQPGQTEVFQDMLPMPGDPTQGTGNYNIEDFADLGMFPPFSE

6xCME luciferase reporter gene activity compared with WT SIM2s: 50 % reduction
Substance: SIM2s-2xHA-3xFLAG W306R variant (natural protein)
